Test results reported in the supplement of paper PMC9876800.

Tested on: peptide library, one residue held at a place counted from the S/T acceptor
Test: relative phosphorylation of the sub-library (ratio to the mean residue at this position); human; higher = residue favoured
Summary of the method: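 In 384-well plates, purified recombinant kinases (human or orthologue constructs) were incubated for 90 min under kinase-specific conditions with 50 μM biotinylated degenerate peptide sub-libraries and 50 μM ATP spiked with γ-32P-ATP. Each sub-library fixed a single residue at one position around a central Ser/Thr. Relative sub-library phosphorylation, measured by phosphorimaging and densitometry of streptavidin membrane spots, is given as a ratio to the mean residue at that position.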

Sequence of RPS6KA6, construct: Full length (Q9UK32 whole entry, looked up): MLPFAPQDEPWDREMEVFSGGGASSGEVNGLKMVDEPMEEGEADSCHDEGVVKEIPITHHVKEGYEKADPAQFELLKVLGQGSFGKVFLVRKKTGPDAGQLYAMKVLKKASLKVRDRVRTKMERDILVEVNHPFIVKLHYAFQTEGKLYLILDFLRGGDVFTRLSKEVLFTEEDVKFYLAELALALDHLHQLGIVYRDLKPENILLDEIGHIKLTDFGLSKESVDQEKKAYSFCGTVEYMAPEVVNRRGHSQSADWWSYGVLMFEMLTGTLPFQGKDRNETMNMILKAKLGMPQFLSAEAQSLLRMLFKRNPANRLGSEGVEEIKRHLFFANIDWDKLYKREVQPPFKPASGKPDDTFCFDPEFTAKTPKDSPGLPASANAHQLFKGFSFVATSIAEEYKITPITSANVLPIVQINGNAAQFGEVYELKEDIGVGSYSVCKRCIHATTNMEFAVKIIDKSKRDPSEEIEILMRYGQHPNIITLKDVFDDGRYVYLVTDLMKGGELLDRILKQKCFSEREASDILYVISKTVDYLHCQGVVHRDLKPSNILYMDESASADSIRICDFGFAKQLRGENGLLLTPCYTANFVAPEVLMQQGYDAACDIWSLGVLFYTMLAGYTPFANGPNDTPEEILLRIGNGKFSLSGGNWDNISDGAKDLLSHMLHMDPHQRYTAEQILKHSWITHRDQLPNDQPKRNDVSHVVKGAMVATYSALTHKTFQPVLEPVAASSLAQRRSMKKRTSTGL

PRKACB, construct: Full length (from UniProt P22694)
relative phosphorylation
Conditions	at +1	at +2	at +3	at +4	at -1	at -2	at -3	at -4	at -5
A fixed	0.818	1.26	0.948	0.9	0.875	0.426	0.62	1.15	1.18
D fixed	0.607	1.56	1.15	1.36	0.667	0.196	0.231	0.657	0.772
E fixed	0.649	0.788	1.04	1.3	0.49	0.167	0.252	0.816	0.736
F fixed	0.811	0.684	0.72	0.689	0.455	0.209	0.213	0.486	0.594
G fixed	0.87	1.29	1.29	1.15	1.47	0.436	0.625	1.51	1.42
H fixed	1.22	1.7	1.45	1.05	1.22	0.786	1.34	1.27	1.22
I fixed	1.21	0.573	0.488	0.705	0.265	0.2	0.127	0.471	0.394
K fixed	1.06	0.797	0.927	0.89	1.92	3.26	2.66	1.93	2.25
L fixed	1.06	0.634	0.785	0.713	0.648	0.219	0.183	0.532	0.557
M fixed	1.46	0.701	0.79	0.747	0.856	0.25	0.204	0.782	0.601
N fixed	1.2	1.23	1.24	1.25	1.52	0.566	0.495	1.04	0.983
P fixed	0.382	1.29	1.58	1.74	1.44	0.271	0.824	1.19	1.21
Q fixed	1.3	1.23	1.22	1.34	1.17	0.555	0.715	1.04	0.97
R fixed	1.35	0.937	1.04	0.93	2.14	8.75	7.65	2.38	2.14
V fixed	0.892	0.59	0.517	0.877	0.446	0.191	0.184	0.482	0.605
W fixed	1.05	1.03	0.964	0.66	0.577	0.236	0.329	0.6	0.746
Y fixed	1.06	0.709	0.855	0.698	0.839	0.276	0.354	0.67	0.624
pThr fixed	0.988	0.988	0.984	1.67	0.443	0.319	0.474	0.789	0.727
pTyr fixed	1.06	1	1.24	1.37	0.979	0.276	0.451	0.775	0.82

RPS6KA6, construct: Full length (from UniProt Q9UK32)
relative phosphorylation
Conditions	at +1	at +2	at +3	at +4	at -1	at -2	at -3	at -4	at -5
A fixed	0.637	0.911	0.754	0.964	0.769	0.556	0.382	0.988	0.874
D fixed	0.481	1.09	1.24	1.3	0.622	0.544	0.444	0.785	0.613
E fixed	1.44	0.799	1.65	1.36	0.635	0.549	0.417	0.96	0.608
F fixed	1.16	0.623	0.837	0.671	0.525	0.463	0.251	0.582	0.7
G fixed	0.574	0.967	1.23	1.37	1.1	0.812	0.527	1.13	0.932
H fixed	0.943	2.06	1.29	1.12	0.934	1.04	0.564	0.915	1
I fixed	1.49	0.54	0.708	0.609	0.262	0.364	0.205	0.479	0.433
K fixed	1.14	0.761	1.12	1.03	2.1	2.65	1.75	1.95	2.56
L fixed	1.1	0.498	0.815	0.648	0.657	1.01	0.245	0.563	0.539
M fixed	1.08	0.594	0.717	0.82	0.863	0.522	0.314	0.8	0.545
N fixed	0.986	1.13	1.1	1.04	1.49	0.675	0.541	0.822	0.687
P fixed	0.407	0.498	0.699	1.66	2.81	0.914	1.11	1.49	0.755
Q fixed	1.17	0.724	1.08	1.04	1	0.644	0.548	0.917	0.657
R fixed	0.949	1.31	1.01	0.906	1.53	5.3	8.88	2.69	4.15
V fixed	1.78	0.575	0.696	0.625	0.36	0.265	0.208	0.568	0.538
W fixed	0.716	1.58	0.975	1.03	0.468	0.27	0.286	0.681	0.705
Y fixed	0.948	2.34	1.07	0.81	0.872	0.424	0.325	0.676	0.697
pThr fixed	2.29	1.05	1.56	2.31	0.471	0.51	0.399	0.692	0.543
pTyr fixed	1.69	1.18	1.86	1.37	0.705	0.517	0.442	0.645	0.647
